Source: patent US20170306013A1 (KYMAB, published 2017)
Residue numbers refer to the chain shown, from its start.

T1: KP1.2 peptide of the D2E2 loop of the Nav1.7 channel (human, not fully specified)
T1 construct: also called human NAV1.7 peptide
T1 peptide: H-VELFLADVEGC-NH2

B1: 30G01 (antibody, V domains shown)
VH: QVQLQESGPGLVKPSGTLSLTCAVSGGSISSSNWWSWVRQPPGKGLEWIGEIYHSGNTNYNPSLKSRVTISVDKSKNQFSLKLSSVTAADTAVYYCVRGYYYDSGTSWGYYYGMDVWGQGTTVTVSS
VL: DIQMTQSPSSLSASVGDRVTITCRASQGISNYLAWFQQRPGRAPKSLIYAASSLQRGVPSKFSGSGSGTDFTLTISSLQPEDFATYYCQQYNSYPITFGQGTRLEIK
B2: 22G09 (antibody, V domains shown)
VH: QVQLVQSGAEVRKPGASVKVSCKASGYTFTDYAIHWVRQAPGQRLEWMGWIIVGNGKTRYSQKFQGRVTITWETSATTAYMDLSSLRSEDTAVYYCARGFTMVRGAPYYDGMDVWGQGTTVTVSS
VL: DIVMTQSPLSLPVTPGEPASISCRSSQSLLYTTGYNYLDWYLQKPGLSPQLLIYLGSYRASGVPDRFTGSGSGTDFTLKISRVEAEDVGVYYCMQALQAPTFGGGTKLEIK
notes: Detected with anti-human IgG
B3: 32A07 (antibody, V domains shown)
VH: B2 VH with A9P, K13N, K19R, I34L, S61A, T77S, Y80F, M112L, V123I
VL: DIVMTQSPLSLPVTLGQPASISCRSSQSLIYSDGNTYLNWFQQRPGQSPRRLIYKVSNRDSGVPDRFSGSGSGTDFTLKISRVEAEDVGVYYCLQGTLWPITFGQGTRLEIK
B4: 35E11 (antibody, V domains shown)
VH: B2 VH with S61A, F64L, T77S, S84T, M112L
VL: B2 VL with T32S, Q50H, Y58N, T68S, A99T, L108V
B5: 32B04 (antibody, V domains shown)
VH: B2 VH with L4F, V68L
VL: B2 VL
notes: Detected with anti-human IgG; also called 32604
B6: 35A06 (antibody, V domains shown)
VH: B2 VH with I34L, S61A, T77S, Y80F, M112L
VL: B2 VL with T32S, Y58N, T68S, A99T, L108V
notes: Detected with anti-human IgG
B7: 28C11 (antibody, V domains shown)
VH: B2 VH with S61A, T77S, M112L
VL: B2 VL with Y31F, T32S, Y58N, T68S, A99T, L108V
notes: Detected with anti-human IgG
B8: 32D04 (antibody, V domains shown)
VH: B2 VH with A9P, K13N, K19R, I34L, S61A, T77S, Y80F, M112L, V123I
VL: B2 VL with T14S, T32S, Y58I, T68S, K79S, V90I, A99T, L108V
notes: Detected with anti-human IgG
B9: 32E01 (antibody, V domains shown)
VH: B2 VH with T77S
VL: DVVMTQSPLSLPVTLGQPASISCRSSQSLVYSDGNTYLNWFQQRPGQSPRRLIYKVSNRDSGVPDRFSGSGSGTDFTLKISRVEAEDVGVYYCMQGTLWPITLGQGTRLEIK
B10: 28B08 (antibody, V domains shown)
VH: B2 VH with I34L, S61A, T77S, Y80F, M81V, S84N, M112L
VL: B2 VL with P12S, T32S, Y58N, T68S, V90F, L108V
notes: Detected with anti-human IgG; also called 28608
B11: 25A01 (antibody, V domains shown)
VH: QVQLVQSEAEVKKPGASVKVSCKASGYIFTTFGLSWVRQAPGQGLEWMGRITTNNGNTIYERRFQGRVTMTIDTSTTTAYMEMRSLTSDDTAVYYCARDGAPQDHWGQGTLVTVSS
VL: DIQMTQSPSSLSVSVGDRVIITCRASQDIRNSLAWFQQKPGKAPKSLIFAASSLQSGVPSKFRGSGFGTDFTLTITSLQPEDFATYYCQQYSSYPLTFGGGTKVEIK
notes: Detected with anti-human IgG
B12: 25F08 (antibody, V domains shown)
VH: QVQLVQSGPEVKKPGASVKVSCQASGYTFTTYGINWVRQAPGQGLEWMGRISAYNGNTNYAQKFQGRVTMTTDTSTRTAYMEMSNLISDDTAVYYCARDGAPQDHWGQGTLITVSS
VL: B11 VL with V19I, I20T, R30S, R63S, F67S, T72N, L73F, T76S, S92N, Y94F
notes: Detected with anti-human IgG
B13: 25C01 (antibody, V domains shown)
VH: EVHLVESGGGLVQPGGSLRLSCSASRFTFSTSAMTWVRQAPGKGLEWVSVISASGTTTYYGDSVKGRFTISRDNSKNTLHLQMNSLRAEDTAVYYCAKGGLAVPGPNYWGQGTLVTVSS
VL: DVVMTQSPLSLPVTLGQPASISCRSSQSLVFSDGNTYLTWFQQRPGQSPRRLIYKVSDRDSGVPDRFSGSGSGTDFTLQISRVEAEDVGLYYCMQGSHWPLTFGGGTKVEIK
notes: Detected with anti-human IgG
B14: 27A03 (antibody, V domains shown)
VH: EVQLVESGGGLVKPGGSLRLSCAASGFTFSTYSMNWVRQAPGKGLEWVSSISRSSSYIYYADSVKGRFTISRDNAKNSLSLQMNSLRAEDTAVYYCARGAAAGTDYWGQGTLVTVSS
VL: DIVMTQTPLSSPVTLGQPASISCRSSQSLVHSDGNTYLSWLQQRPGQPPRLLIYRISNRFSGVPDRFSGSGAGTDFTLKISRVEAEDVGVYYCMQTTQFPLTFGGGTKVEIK
B15: 35A10 (antibody, V domains shown)
VH: B14 VH
VL: B3 VL

Target: T1, KP1.2 peptide of the D2E2 loop of the …
Test: DELFIA: KP1.2 peptide on streptavidin plate, purified antibody undiluted, Eu-labelled anti-human IgG, time-resolved fluorescence at 615 nm
Experimental: Four mice were immunised substantially as detailed in Table 6. The immunisations of Boost 6 each used 3 μg of KP1.2-KLH and 3 μg KP5.1-KLH, adjuvanted with IFA, CpG and Alum as set out in Table 6. A seventh booster immunisation was added, which consisted of 2 μg of KP1.2-KLH and 2 μg KP5.1-KLH, adjuvanted with IFA, CpG and Alum as set out in Table 6. Antibodies were isolated from these mice. 17 antibodies were identified using B-cell cloning technique as described above with labelled KP1.2 peptide (SEQ ID No:10). These 17 antibodies were further tested for binding to human NAV1.7 peptide using a DELFIA assay.
Streptavidin Even Coat 96 well plates (R&D Systems) were coated with 50 μL of 4 μg/ml KP1.2 peptide (SEQ ID No:10, synthesised by Mimotopes) diluted in 1×PBS (Sigma) for 1 hr at room temperature (RT). Plates were then washed 3× with 1×PBS+0.1% tween (200 μL/well). Plates were blocked with 200 μL PBS+1% BSA (Sigma) for 1 hr at RT. Plates were then washed again 3× with 1×PBS+0.1% tween (Sigma) (200 μL/well). Purified antibodies were then added non-diluted to washed plate and incubated for 1 hr at RT (50 μL/well). Plates were then washed 3× with 1×PBS+0.1% tween (200 μL/well). 50 μL/well of Dissociation-Enhanced Lanthanide Fluorescent Immunoassay (DELFIA) Europium-labelled Anti-Human IgG antibody (Perkin Elmer) diluted 1:500 in DELFIA assay buffer (Perkin Elmer) for 1 hr at RT. Plates were then washed 3× with DELFIA wash buffer (Perkin Elmer) (200 μL/well). 50 μL/well of DELFIA Enhancement Solution (Perkin Elmer, warmed to RT before use) was added to each well and incubated for 5 min at RT on shaker (Heidolph Titramax). […] Values were plotted using Prism (Graph Pad Prism).

Row | Binder | binding result
1 | B1 | no binding (tested: undiluted, concentration not given)
2 | B2 | binds
3 | B3 | no binding (tested: undiluted, concentration not given)
4 | B4 | binds
5 | B5 | binds
6 | B6 | binds
7 | B7 | binds
8 | B8 | binds
9 | B9 | no binding (tested: undiluted, concentration not given)
10 | B10 | binds
11 | B11 | binds
12 | B12 | binds
13 | B13 | binds
14 | B14 | no binding (tested: undiluted, concentration not given)
15 | B15 | no binding (tested: undiluted, concentration not given)
